Measurements taken from patent publication US20190077860A1 (EISAI R AND D MANAGEMENT, published 2019).
Substitutions are numbered along the chain they refer to.

T1: human EphA7 extracellular region-SEAP-His protein (human, UniProt Q15375 28-555)
T1 construct: extracellular domain; also called hEphA7-SEAP-His
T1 sequence (looked up): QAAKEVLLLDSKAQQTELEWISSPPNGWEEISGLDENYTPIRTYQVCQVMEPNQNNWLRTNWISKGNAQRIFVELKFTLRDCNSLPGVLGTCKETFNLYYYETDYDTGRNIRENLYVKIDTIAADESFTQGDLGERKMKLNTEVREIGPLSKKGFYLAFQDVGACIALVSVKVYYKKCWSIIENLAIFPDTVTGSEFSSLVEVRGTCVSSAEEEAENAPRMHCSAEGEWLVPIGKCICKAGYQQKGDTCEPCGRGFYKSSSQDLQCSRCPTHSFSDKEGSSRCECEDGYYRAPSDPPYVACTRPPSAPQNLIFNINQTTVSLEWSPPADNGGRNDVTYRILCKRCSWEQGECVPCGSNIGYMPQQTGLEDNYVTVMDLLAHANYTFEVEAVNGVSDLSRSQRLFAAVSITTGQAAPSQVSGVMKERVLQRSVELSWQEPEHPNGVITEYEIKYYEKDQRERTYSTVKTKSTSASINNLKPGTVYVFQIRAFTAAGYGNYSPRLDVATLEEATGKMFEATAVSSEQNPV

T2: human EphB6 extracellular region-SEAP-His protein (human, UniProt O15197 32-594)
T2 construct: extracellular domain; also called hEphB6-SEAP-His
T2 sequence (looked up): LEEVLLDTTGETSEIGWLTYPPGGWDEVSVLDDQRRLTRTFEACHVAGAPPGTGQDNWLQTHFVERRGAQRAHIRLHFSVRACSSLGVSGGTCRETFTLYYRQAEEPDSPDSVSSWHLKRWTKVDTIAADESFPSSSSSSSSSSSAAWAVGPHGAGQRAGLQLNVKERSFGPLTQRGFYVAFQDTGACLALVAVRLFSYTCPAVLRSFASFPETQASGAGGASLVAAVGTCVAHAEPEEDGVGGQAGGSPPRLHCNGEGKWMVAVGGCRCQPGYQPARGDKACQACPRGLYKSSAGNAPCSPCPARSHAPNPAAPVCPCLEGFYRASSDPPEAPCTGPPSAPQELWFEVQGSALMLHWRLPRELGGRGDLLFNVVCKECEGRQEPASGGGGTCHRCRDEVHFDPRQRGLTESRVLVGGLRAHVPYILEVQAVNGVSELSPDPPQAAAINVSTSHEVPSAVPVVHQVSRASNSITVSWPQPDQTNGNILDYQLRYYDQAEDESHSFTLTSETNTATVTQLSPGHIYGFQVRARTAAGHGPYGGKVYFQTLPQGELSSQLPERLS

T3: human EphA10 extracellular region-SEAP-His protein (human, UniProt Q5JZY3 34-565)
T3 construct: extracellular domain; also called hEphA10-SEAP-His
T3 sequence (looked up): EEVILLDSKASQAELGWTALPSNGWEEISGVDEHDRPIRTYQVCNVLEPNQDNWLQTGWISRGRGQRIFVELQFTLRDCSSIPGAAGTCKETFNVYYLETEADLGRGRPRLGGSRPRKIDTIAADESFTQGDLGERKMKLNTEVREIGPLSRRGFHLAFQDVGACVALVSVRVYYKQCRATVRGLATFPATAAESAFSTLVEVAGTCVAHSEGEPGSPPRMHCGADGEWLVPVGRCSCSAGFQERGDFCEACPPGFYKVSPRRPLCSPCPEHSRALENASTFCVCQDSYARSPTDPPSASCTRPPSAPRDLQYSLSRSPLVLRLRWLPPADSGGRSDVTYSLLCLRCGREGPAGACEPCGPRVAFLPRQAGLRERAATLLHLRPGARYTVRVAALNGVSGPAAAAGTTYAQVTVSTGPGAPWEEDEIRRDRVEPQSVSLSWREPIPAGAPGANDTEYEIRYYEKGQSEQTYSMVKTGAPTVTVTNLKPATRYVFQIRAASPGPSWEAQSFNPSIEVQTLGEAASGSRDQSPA

T4: human EphA1 extracellular region-SEAP-His protein (human, UniProt P21709 26-547)
T4 construct: extracellular domain; also called hEphA1-SEAP-His
T4 sequence (looked up): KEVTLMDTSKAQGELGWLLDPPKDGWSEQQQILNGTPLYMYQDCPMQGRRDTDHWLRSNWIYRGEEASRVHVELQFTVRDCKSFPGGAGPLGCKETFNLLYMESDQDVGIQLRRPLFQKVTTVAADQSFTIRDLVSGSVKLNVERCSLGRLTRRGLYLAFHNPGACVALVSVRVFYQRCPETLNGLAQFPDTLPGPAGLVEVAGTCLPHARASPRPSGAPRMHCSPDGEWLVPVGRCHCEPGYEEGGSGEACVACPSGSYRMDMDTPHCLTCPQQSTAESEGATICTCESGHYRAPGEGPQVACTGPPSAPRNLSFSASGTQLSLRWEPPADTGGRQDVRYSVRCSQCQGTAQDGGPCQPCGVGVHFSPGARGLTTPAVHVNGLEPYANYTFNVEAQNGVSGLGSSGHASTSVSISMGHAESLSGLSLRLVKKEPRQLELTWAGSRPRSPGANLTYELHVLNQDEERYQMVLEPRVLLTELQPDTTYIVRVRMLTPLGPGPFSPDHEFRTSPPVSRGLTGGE

B1: humanized antibody No. 135 (antibody, human IgG2)
heavy: QVQLVQSGSELKKPGASVKVSCKASGYTFTDYSMHWVRQAPGQGLEWMGWINTETGEPTYADDFKGRFVFSLDTSVSTAYLQISSLKAEDTAVYYCARIPLYYYGSRYWYFDVWGQGTTVTVSSASTKGPSVFPLAPSSRSTSESTAALGCLVKDYFPEPVTVSWNSGALTSGVHTFPAVLQSSGLYSLSSVVTVPSSNFGTQTYTCNVDHKPSNTKVDKTVERKSCVECPPCPAPPAAAPSVFLFPPKPKDTLMISRTPEVTCVVVDVSHEDPEVQFNWYVDGVEVHNAKTKPREEQFNSTFRVVSVLTVVHQDWLNGKEYKCKVSNKGLPAPIEKTISKTKGQPREPQVYTLPPSREEMTKNQVSLTCLVKGFYPSDIAVEWESNGQPENNYKTTPPMLDSDGSFFLYSKLTVDKSRWQQGNVFSCSVMHEALHNHYTQKSLSLSPG
light: EIVMTQSPATLSVSPGERATLSCRASENIYRNLAWYQQKPGQSPRLLIYAATNLADGIPARFSGSGSGTEYTLTISSLQSEDFAVYYCQHFWGTPWTFGQGTKVEIKRTVAAPSVFIFPPSDEQLKSGTASVVCLLNNFYPREAKVQWKVDNALQSGNSQESVTEQDSKDSTYSLSSTLTLSKADYEKHKVYACEVTHQGLSSPVTKSFNRGEC
notes: human Ig kappa; also called L2-4/HK1
B2: humanized antibody No. 136 (antibody, human IgG2)
heavy: B1 heavy with E46K
light: B1 light
notes: human Ig kappa; also called L2-4/HK2
B3: humanized antibody No. 137 (antibody, human IgG2)
heavy: B1 heavy with V2I, E46K
light: B1 light
notes: human Ig kappa; also called L2-4/HK4
B4: humanized antibody No. 94 (antibody, human IgG1, kappa)
heavy: QVQLVQSGSELKKPGASVKVSCKASGYTFTDYSMHWVRQAPGQGLKWMGWINTETGEPTYAQGFTGRFVFSLDTSVSTAYLQISSLKAEDTAVYYCARIPLYYYGSRYWYFDVWGQGTTVTVSSASTKGPSVFPLAPSSKSTSGGTAALGCLVKDYFPEPVTVSWNSGALTSGVHTFPAVLQSSGLYSLSSVVTVPSSSLGTQTYICNVNHKPSNTKVDKRVEPKSCDKTHTCPPCPAPPAAAPSVFLFPPKPKDTLMISRTPEVTCVVVDVSHEDPEVQFNWYVDGVEVHNAKTKPREEQFNSTFRVVSVLTVVHQDWLNGKEYKCKVSNKGLPAPIEKTISKTKGQPREPQVYTLPPSREEMTKNQVSLTCLVKGFYPSDIAVEWESNGQPENNYKTTPPMLDSDGSFFLYSKLTVDKSRWQQGNVFSCSVMHEALHNHYTQKSLSLSPG
light: B1 light
notes: human Ig kappa; also called L2-4/HA2
B5: humanized antibody No. 71 (antibody, human IgG1, kappa)
heavy: B4 heavy with V2I
light: B1 light
notes: human Ig kappa; also called L2-4/HA4
B6: humanized antibody No. 73 (antibody, human IgG1, kappa)
heavy: B4 heavy with V2I, Q62D, G63D, T65K
light: B1 light
notes: as for B3
B7: humanized antibody No. 93 (antibody, human IgG1, kappa)
heavy: B4 heavy with K46E
light: B1 light
notes: human Ig kappa; also called L2-4/HA1
B8: humanized antibody No. 95 (antibody, human IgG1, kappa)
heavy: B4 heavy with K46E, Q62D, G63D, T65K
light: B1 light
notes: as for B1
B9: humanized antibody No. 96 (antibody, human IgG1, kappa)
heavy: B4 heavy with Q62D, G63D, T65K
light: B1 light
notes: as for B2

Experiments:
Assay in all cases: ELISA
[1] = molecular target: T5, human EphA5 extracellular region-SEAP-His protein (human, UniProt P54756 25-573)
T5 construct: extracellular domain; also called hEphA5-SEAP-His

[2] = molecular target: T1, human EphA7 extracellular …
[3] = molecular target: T2, human EphB6 extracellular …
SEAP-His = SEAP-His (UniProt P05187 23-511)
[4] = molecular target: T3, human EphA10 extracellular …
[5] = molecular target: T4, human EphA1 extracellular …

T5 sequence (P54756 25-573): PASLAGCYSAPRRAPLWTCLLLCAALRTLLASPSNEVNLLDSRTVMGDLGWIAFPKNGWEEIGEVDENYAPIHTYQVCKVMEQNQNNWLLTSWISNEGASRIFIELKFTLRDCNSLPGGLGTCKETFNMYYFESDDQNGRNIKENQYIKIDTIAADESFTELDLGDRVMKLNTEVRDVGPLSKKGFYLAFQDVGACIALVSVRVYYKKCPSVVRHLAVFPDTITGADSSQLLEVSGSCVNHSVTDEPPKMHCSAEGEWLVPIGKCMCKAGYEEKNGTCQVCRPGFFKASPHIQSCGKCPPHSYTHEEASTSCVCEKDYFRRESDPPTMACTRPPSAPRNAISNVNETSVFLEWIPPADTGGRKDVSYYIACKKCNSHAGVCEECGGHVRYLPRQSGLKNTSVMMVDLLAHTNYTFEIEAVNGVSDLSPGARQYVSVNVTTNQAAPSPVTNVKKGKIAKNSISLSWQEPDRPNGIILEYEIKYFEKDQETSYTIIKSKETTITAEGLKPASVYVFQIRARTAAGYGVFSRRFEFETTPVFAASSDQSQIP
Chain of SEAP-His (P05187 23-511): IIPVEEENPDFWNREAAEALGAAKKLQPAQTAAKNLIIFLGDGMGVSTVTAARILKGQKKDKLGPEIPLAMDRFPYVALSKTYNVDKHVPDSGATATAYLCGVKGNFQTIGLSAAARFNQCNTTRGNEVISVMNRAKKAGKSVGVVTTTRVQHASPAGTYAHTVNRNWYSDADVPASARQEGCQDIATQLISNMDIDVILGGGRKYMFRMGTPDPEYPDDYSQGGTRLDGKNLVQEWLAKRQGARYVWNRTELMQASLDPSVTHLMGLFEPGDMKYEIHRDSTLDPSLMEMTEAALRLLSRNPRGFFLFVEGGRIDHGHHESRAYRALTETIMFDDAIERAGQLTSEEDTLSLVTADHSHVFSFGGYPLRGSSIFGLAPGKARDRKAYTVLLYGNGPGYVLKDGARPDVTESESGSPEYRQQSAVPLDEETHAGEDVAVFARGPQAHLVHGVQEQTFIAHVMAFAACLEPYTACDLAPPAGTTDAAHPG

Row | Binder | A450 as % of hEphA4-SEAP-His [1] | A450 as % of hEphA4-SEAP-His [2] | A450 as % of hEphA4-SEAP-His [3] | A450 as % of hEphA4-SEAP-His (SEAP-His) | A450 as % of hEphA4-SEAP-His [4] | A450 as % of hEphA4-SEAP-His [5]
1 | B1 | 5% | 5.2% | 5.3% | 5.3% | 5.1% | 5.2%
2 | B2 | 5.2% | 5.4% | 5.5% | 5.2% | 5.2% | 5.3%
3 | B3 | 5.7% | 5.8% | 5.7% | 5.9% | 5.6% | 6.1%
4 | B4 | 6.5% | 6.1% | 6.4% | 6.7% | 6.4% | 6.5%
5 | B5 | 5.6% | 5.2% | 5.3% | 5.6% | 5.3% | 5.6%
6 | B6 | 6% | 5.6% | 5.6% | 5.8% | 5.6% | 6%
7 | B7 | 4.9% | 4.9% | 4.9% | 5% | 4.9% | 5%
8 | B8 | 4.6% | 4.4% | 4.7% | 4.4% | 4.5% | 4.5%
9 | B9 | 6% | 5.3% | 5.5% | 5.5% | 5.3% | 5.6%
